Measurements as given in patent publication US20240262899A1.

Tests used:
[1] = molecular target: citrullinated histone H3 (CitH3) peptide (human); assay: sandwich ELISA, Ab coated 1 ug/mL, CitH3 at 50 pg/mL
[2] = molecular target: citrullinated histone H3 (CitH3) peptide (human); assay: sandwich ELISA, Ab coated 1 ug/mL, CitH3 at 1000 pg/mL
[3] = molecular target: citrullinated histone H3 (CitH3) peptide (human); assay: sandwich ELISA, Ab coated 1 ug/mL, CitH3 at 20000 pg/mL
[4] = molecular target: citrullinated histone H3 (CitH3) peptide (human); assay: sandwich ELISA, Ab coated 1 ug/mL, CitH3 at 0 pg/mL (blank)

B1: Y1128-VH1/VL1 (antibody, V domains shown)
VH: EVQLVQSGAEVKKPGATVKISCKASGFNIKDYYMHWMQQRPGKGLEWIGWIDPENGNTIYDPKFQGRVTITSDTSTDTAYLELSSLRSEDTAVYYCAPFGNYVWFAYWGQGTLVTVSS
VL: DVVMTQSPLSLPVTLGQPASISCRSSQSIVHSNGITYLEWFQQRPGQSPRLLIYKVSNRFSGVPDRFSGSGSGTDFTLKISRVEAEDVGVYYCFQGSHVPFTFGQGTKLEIKR
Q: With B1 as the binder, how does the ELISA signal (raw data) [1] read?
A: Its ELISA signal (raw data) is 2950.

Q: What about the ELISA signal (raw data) [2] of the same binder?
A: The ELISA signal (raw data) was 2910.

Q: What about the ELISA signal (raw data) [3] of the same binder?
A: The ELISA signal (raw data) was 3700.

Q: And the ELISA signal (raw data) [4]?
A: The ELISA signal (raw data) was 2780.
